Source: patent US12077566B2, “Mutants of recombinant immunoregulatory protein of Ganoderma lucidum and applications thereof” (priority 2017, dated 2024)

Key:
[1] = biological target: EGFR extracellular domain (Homo sapiens, UniProt P00533); assay: Affinity test by surface plasmon resonance (Biacore T200, CM5 chip); format: binding; conditions: for Affinity with the EGFR (in words): compared with rLZ-8; for Dissociation rate constant (koff) / Ka: EGFR extracellular domain coupled on CM5 chip, analyte 4-256 nM
Method: The Biacore™ T200 equipment (a Surface Plasmon Resonance from GE Company) is selected. Through the surface plasma resonance technology, the affinity of the rLZ-8 and the mutants thereof to the EGFR extracellular domain is tested. The CM5 chip is adopted to serve as the affinity test chip.
The EGFR extracellular domain (with an amino acid sequence of 25-645) serves as the ligand for coupling; 1 mg EGFR freeze-dried powders are diluted with HEPES buffer solution to a concentration of 400 μg/mL and set aside. Three 1.5 mL EP tubes are prepared; 10 μL ligand are respectively added into the three tubes, then 90 μL 10 mM sodium acetate with different pH values of 4.5, 5.0 and 5.5 are respectively added into the tubes and are mixed completely and uniformly; and a final concentration of the ligand is 40 μg/mL. Moreover, 200 μL 50 mM sodium acetate is added into another 1.5 mL EP tube.
The ligand has a molecular weight of 70 kDa, the analyte (rLZ-8) has a molecular weight of 12.4 kDa. In theory, one rLZ-8 […] can bind with one EGFR, and thus the stoichiometric ratio Sm is equal to 1. Through the following equations, the coupling amount RL of the ligand is calculated.
Through the experimental experience, the optimal reagent coupling amount is set to be 3*RL, and the coupling amount is set to be 1700 RU. The EGFR extracellular domain is successively coupled on the CM5 chip.
In the affinity test, in order to eliminate the influence of different concentrations on the affinity, every of the rLZ-8 and the mutants thereof are tested with eight concentrations, wherein: seven concentrations are gradient concentrations, and the last one is the test reference concentration.

[2] = tested on: human breast cancer MCF7 cells; assay: Orthotopic transplantation tumor model of human breast cancer MCF7 cells; format: in vivo, BALB/c nude mice; conditions: after administration for 28 days
Method: One day before the experiment, 0.5 mg of 17ß estradiol sustained release tablet is embedded below the neck skin of the BALB/c nude mice.

[3] = tested on: human colon cancer SW480 cells; assay: Transplantation tumor model of human colon cancer SW480 cells; format: in vivo, BALB/c nude mice; conditions: after administration for 28 days
Method: The RPMI1640 medium containing 10% fetal bovine serum is selected for the human colon cancer SW480 cells, and then is placed in the CO2 constant-temperature incubator at 37° C. for culturing. The SW480 cells at the logarithmic phase are digested by pancreatin and thereafter washed with serum-free RPMI1640 medium; 2×10^6 cells are inoculated below the back skin of the BALB/c nude mice; after the tumor blocks for observation are formed and have the diameter larger than 0.5 cm, the mice are divided into groups randomly; and the transplantation tumor model of human colon cancer SW480 cells are constructed in the BALB/c nude mice.

[4] = tested on: human lung cancer A549 cells; assay: Orthotopic transplantation tumor model of human lung cancer A549 cells; conditions: after administration for 28 days;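 note: test animals were NOG mice aged 6-8 weeks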
Method: The human lung cancer A549 cell strain is selected. The NOG Mice of 6-8 weeks old are selected.
The DMEM containing 10% fetal bovine serum is selected for the human lung cancer A549 cells, and then is placed in the CO2 constant-temperature incubator at 37° C. for culturing. The A549 cells at the logarithmic phase are digested by pancreatin and thereafter washed with serum-free DMEM; the living cell concentration is adjusted to 1×10^8 cells per milliliter; 20 μL cell suspension is taken and inoculated at the lung of the NOG mice; two weeks later, the orthotopic transplantation tumor model of A549 lung cancer cells is constructed in the NOG mice.

[5] = tested on: human liver cancer Hep G2 cells; conditions: for Mice weight after experiment: mouse, in vivo; for Mice tumor weight after experiment / Survival rate of mice after experiment: qd×28 i.v., rLZ-8 and mutants 0.5 mg/kg, sorafenib 50 mg/kg; for Survival rate of mice after experiment: 10 mice per group
Source text: Two weeks later, the model mice are divided into groups randomly, and each group has 10 mice. The administration method is caudal vein injection, once a day, for consecutive 28 days (qd×28, i.v.). […] During the experiment, if the mouse dies, the dead mouse is weighted on the same day, and the tumor tissue is taken out to be weighted. For the living mouse after administration for 28 days, the mouse is killed, and then the tumor tissue is taken out to be weighted. The death time and death number of the mice in each group are recorded in detail; the survival conditions of the mice of the experimental groups and the control groups are analyzed, and the survival rate is calculated, wherein the survival rate is obtained through subtracting the death number of the mice from the total number of the mice, and then dividing the difference by the total number of the mice.

Molecule | Affinity with the EGFR (in words) [1] | Mice tumor weight after experiment [2] | Dissociation rate constant (koff) [1] | Ka [1] | Mice tumor weight after experiment [3] | Mice survival rate after experiment [4] | Mice tumor weight after experiment [4] | Mice weight after experiment [4] | Mice weight after experiment [5] | Mice tumor weight after experiment [5] | Survival rate of mice after experiment [5]
FIP-fve: fungai immunomodulatory protein from flammulina velutipes (protein) SATSLTFQLAYLVKKIDFDYTPNWGRGTPSSYIDNLTFPKVLTDKKYSYRVVVNGSDLGVESNFAVTPSGGQTINFLQYNKGYGVADTKTIQVFVVIPDTGNSEEYIIAEWKKT | does not have the capacity of binding with the EGFR | – | – | – | – | – | – | – | – | – | –
rLZ-8 (R9A): alanine mutant of rLZ-8 at R9 (protein) MSDTALIFALAWDVKKLSFDYTPNWGRGNPNNFIDTVTFPKVLTDKAYTYRVAVSGRNLGVKPSYAVESDGSQKVNFLEYNSGYGIADTNTIQVFVVDPDTNNDFIIAQWN | no obvious change | 0.79 ± 0.31 g | 0.000528 s⁻¹ | 61200 M⁻¹ s⁻¹ | 1.89 ± 0.37 g | 50% | 0.69 ± 0.53 g | 20.0 ± 1.4 g | 19.3 ± 1.3 g | 0.65 ± 0.43 g | 50%
rLZ-8 (L17K): rLZ-8 mutant after surface potential optimization, L17K (protein) MSDTALIFRLAWDVKKKSFDYTPNWGRGNPNNFIDTVTFPKVLTDKAYTYRVAVSGRNLGVKPSYAVESDGSQKVNFLEYNSGYGIADTNTIQVFVVDPDTNNDFIIAQWN | – | 0.63 ± 0.31 g | 7.56e-05 s⁻¹ | 10100 M⁻¹ s⁻¹ | 1.62 ± 0.41 g | 70% | 0.53 ± 0.30 g | – | 20.1 ± 1.4 g | 0.58 ± 0.33 g | 70%
rLZ-8 (M1A/R9A/D100A): rLZ-8 mutant named only in Tables 2, 3, 7 and 8 (protein) ASDTALIFALAWDVKKLSFDYTPNWGRGNPNNFIDTVTFPKVLTDKAYTYRVAVSGRNLGVKPSYAVESDGSQKVNFLEYNSGYGIADTNTIQVFVVDPATNNDFIIAQWN | – | 0.77 ± 0.32 g | – | – | 1.97 ± 0.35 g | – | – | – | – | 0.78 ± 0.67 g | 60%
rLZ-8 (D20H/D70K): rLZ-8 mutant after surface potential optimization, D20H and D70K (protein) MSDTALIFRLAWDVKKLSFHYTPNWGRGNPNNFIDTVTFPKVLTDKAYTYRVAVSGRNLGVKPSYAVESKGSQKVNFLEYNSGYGIADTNTIQVFVVDPDTNNDFIIAQWN | – | 0.60 ± 0.27 g | – | – | 1.60 ± 0.29 g | 70% | 0.49 ± 0.28 g | 20.6 ± 1.7 g | 20.1 ± 1.5 g | 0.51 ± 0.27 g | 70%
rLZ-8 (D20H): rLZ-8 mutant after surface potential optimization, D20H (protein) MSDTALIFRLAWDVKKLSFHYTPNWGRGNPNNFIDTVTFPKVLTDKAYTYRVAVSGRNLGVKPSYAVESDGSQKVNFLEYNSGYGIADTNTIQVFVVDPDTNNDFIIAQWN | – | 0.61 ± 0.22 g | 0.000432 s⁻¹ | 58700 M⁻¹ s⁻¹ | 1.54 ± 0.45 g | 70% | 0.51 ± 0.32 g | 19.9 ± 1.7 g | 19.7 ± 1.7 g | 0.60 ± 0.31 g | 60%
rLZ-8 (K46E): rLZ-8 mutant K46E (protein) MSDTALIFRLAWDVKKLSFDYTPNWGRGNPNNFIDTVTFPKVLTDEAYTYRVAVSGRNLGVKPSYAVESDGSQKVNFLEYNSGYGIADTNTIQVFVVDPDTNNDFIIAQWN | – | 0.75 ± 0.32 g | – | – | 2.15 ± 0.62 g | 40% | 0.65 ± 0.31 g | 20.4 ± 1.6 g | 19.4 ± 1.8 g | 0.75 ± 0.44 g | 60%
rLZ-8 (K41D/K46E/K74E): rLZ-8 mutant K41D, K46E and K74E (protein) MSDTALIFRLAWDVKKLSFDYTPNWGRGNPNNFIDTVTFPDVLTDEAYTYRVAVSGRNLGVKPSYAVESDGSQEVNFLEYNSGYGIADTNTIQVFVVDPDTNNDFIIAQWN | decreased | 1.10 ± 0.42 g | – | 35300 M⁻¹ s⁻¹ | 3.10 ± 0.48 g | 40% | 1.20 ± 0.62 g | 19.1 ± 1.3 g | 20.0 ± 1.2 g | 1.25 ± 0.53 g | 40%
rLZ-8 (K46E/K74E): rLZ-8 mutant K46E and K74E (protein) MSDTALIFRLAWDVKKLSFDYTPNWGRGNPNNFIDTVTFPKVLTDEAYTYRVAVSGRNLGVKPSYAVESDGSQEVNFLEYNSGYGIADTNTIQVFVVDPDTNNDFIIAQWN | – | 0.73 ± 0.24 g | 0.000614 s⁻¹ | 65700 M⁻¹ s⁻¹ | 2.23 ± 0.54 g | 50% | 0.63 ± 0.41 g | 20.0 ± 1.5 g | 20.1 ± 1.7 g | 0.69 ± 0.42 g | 60%
